Reference: patent publication US20150355184A1 (Merck Sharp & Dohme, published 2015)

Columns and labels:
[1] = target: T1, mouse PD-L1 (mouse, UniProt Q9EP73 19-238, limits assumed); assay: ELISA similar to the cell-based ELISA
T1 construct: Tested in 'a similar ELISA experiment'

[2] = target: T2, human PD-L1 expressed on cells (hPD-L1-CHOK1 / human PD-L1-CHO transfectants, LOX melanoma cells, human … (human, UniProt Q9NZQ7 19-290)); assay: flow cytometry on hPD-L1 positive LOX melanoma cells, 1 microgram/ml antibody, against isotype control mouse antibody
T2 construct: Cell surface PD-L1 on transfected CHO cells, on LOX melanoma cells or in FFPE tissue and cell pellets; also called human Programmed Death Ligand 1; mature PD-L1
T2 sequence (Q9NZQ7 19-290 limits assumed): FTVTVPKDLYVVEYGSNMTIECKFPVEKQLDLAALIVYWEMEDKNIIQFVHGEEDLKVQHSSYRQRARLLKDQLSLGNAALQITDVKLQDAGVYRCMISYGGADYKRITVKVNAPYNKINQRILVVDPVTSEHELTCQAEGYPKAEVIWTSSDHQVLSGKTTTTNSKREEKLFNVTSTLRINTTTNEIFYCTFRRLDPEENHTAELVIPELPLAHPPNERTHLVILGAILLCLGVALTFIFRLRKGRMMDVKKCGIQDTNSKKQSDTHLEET
Text: Another experiment assessed the binding specificity of 20C3 and 22C3 for hPD-L1-expressing cells. HT144 cells which were known to be negative for expression of hPD-L1 by mRNA analysis (qPCR) and LOX melanoma cells known to express high levels of hPD-L1 mRNA (qPCR) were stained with 1 microgram/ml of purified mouse IgG from seven hybridomas generated in the experiments described in Example 1 above. An irrelevant isotype control mouse antibody was also used at the identical concentration. A fluorescent-labeled anti-mouse secondary antibody was used to detect the primary mouse antibodies. After staining and repeated washing, the cells were analyzed by flow cytometry, with median fluorescent intensities calculated for the population (>10,000 events collected).
20C3 and 22C3 as well as other hPD-L1 antibodies were employed as flow cytometric reagents to detect cell surface hPD-L1. The significant right shift of both the 20C3 and 22C3 histogram curves (FIG. 6A) as compared to the isotype control antibody curve reflects selective detection of hPD-L1 on the hPD-L1-positive LOX melanoma cell line.

T1 sequence (Q9EP73 19-238 limits assumed): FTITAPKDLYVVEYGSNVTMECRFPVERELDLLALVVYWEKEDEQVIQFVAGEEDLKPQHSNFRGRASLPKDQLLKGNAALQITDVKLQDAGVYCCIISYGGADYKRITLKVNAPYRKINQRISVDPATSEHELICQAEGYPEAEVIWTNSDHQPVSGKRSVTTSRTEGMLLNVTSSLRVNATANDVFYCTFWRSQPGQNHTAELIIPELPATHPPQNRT

B1: Monoclonal Antibody MEB037.20C3 (antibody, mouse IgG1, V domains shown)
VH: QVQVQQSGAELAEPGASVKMSCKASGYIFTSYWMHWLKQRPGQGLEWIGYINPSSDYNEYSEKFMDKATLTADKASTTAYMQLISLTSEDSAVYYCARSGWLVHGDYYFDYWGQGTTLTVSS
VL: DIVMSQSPSSLAVSAGEKVTMSCKSSQSLLNSRTRKNYLAWYQQKPGQSPKLLIYWASTRESGVPDRFTGSGSGTDFTLTISSVQAEDLAVYYCQQSYDVVTFGAGTKLELK
notes: Mouse IgG1 from hybridoma; also called antibody 20C3; antibody produced by hybridoma subclone MEB037.20C3.116
With B1 the binding result [1] was “no binding” and the “fold increase in MFI compared to isotype” value [2] was ≥ 10 fold.

B2: Monoclonal Antibody MEB037.22C3 (antibody, V domains shown)
VH: QVHLQQSGAELAKPGASVKMSCKASGYTFTSYWIHWIKQRPGQGLEWIGYINPSSGYHEYNQKFIDKATLTADRSSSTAYMHLTSLTSEDSAVYYCARSGWLIHGDYYFDFWGQGTTLTVSS
VL: DIVMSQSPSSLAVSAGEKVTMTCKSSQSLLHTSTRKNYLAWYQQKPGQSPKLLIYWASTRESGVPDRFTGSGSGTDFTLTISSVQAEDLAVYYCKQSYDVVTFGAGTKLELK
modifications: N-terminal residue of the mature heavy chain is either glutamine or pyro-glutamate (pE)
notes: Mouse IgG1 from hybridoma (allotype S414R of a mouse IgG1); also called antibody 22C3; antibody produced by hybridoma subclone MEB037.22C3.138
B2 was tested, and the binding result [1] was “no binding” and the “fold increase in MFI compared to isotype” value [2] was ≥ 10 fold.
